First the molecules themselves.
B1: homodimeric SNAP-KIF3A labeled with Alexa647 or TMR (natural protein, mouse, UniProt P28741 1-701, looked up)
chain: MPINKSEKPESCDNVKVVVRCRPLNEREKSMCYRQAVSVDEMRGTITVHKTDSSNEPPKTFTFDTVFGPESKQLDVYNLTARPIIDSVLEGYNGTIFAYGQTGTGKTFTMEGVRAVPGLRGVIPNSFAHIFGHIAKAEGDTRFLVRVSYLEIYNEEVRDLLGKDQTQRLEVKERPDVGVYIKDLSAYVVNNADDMDRIMTLGHKNRSVGATNMNEHSSRSHAIFTITIECSEKGVDGNMHVRMGKLHLVDLAGSERQAKTGATGQRLKEATKINLSLSTLGNVISALVDGKSTHVPYRNSKLTRLLQDSLGGNSKTMMCANIGPADYNYDETISTLRYANRAKNIKNKARINEDPKDALLRQFQKEIEELKKKLEEGEEVSGSDISGSEEDDEEGELGEDGEKKKKRRDQAGKKKVSPDKMVEMQAKIDEERKALETKLDMEEEERNKARAELERREKDLLKAQQEHQSLLEKLSALEKKVIVGGVDLLAKAEEQEKLLEESNMELEERRRRAEQLRKELEEKEQERLDIEEKYTSLQEEAQGKTKKLKKVWTMLMAAKSEMADLQQEHQREIEGLLENIRQLSRELRLQMLIIDNFIPQDYQEMIENYVHWNEDIGEWQLKCVAYTGNNMRKQTPVPDKKERDPFEVDLSHVYLAYTEESLRQSLMKLERPRTSKGKARPKMGRRKRSAKPETVIDSLLQ
modifications: Alexa647 or TMR dye on the SNAP tag
B2: KIF3A (homodimer, separately purified) (natural protein, mouse, UniProt P28741 1-701, looked up)
chain: B1 chain
B3: KAP3 (separately purified) (natural protein, mouse, UniProt P70188-1 1-793, looked up)
chain: MQGEDARYLKRKVKGGNIDVHPSEKALIVQYEVEATILGEMGDPMLGERKECQKIIRLKSLNANTDITSLARKVVEECKLIHPSKLSEVEQLLYYLQNRRDSLPGKEKKEKSSKPKDPPPFEGMEIDEVANINDMDEYIELLYEDIPDKVRGSALILQLARNPDNLEELLLNETALGALARVLREDWKQSVELATNIIYIFFCFSSFSHFHGLITHYKIGALCMNIIDHELKRHELWQEELSKKKKAVDEDLENQTLRKDYDKTFKKYQGLVVKQEQLLRVALYLLLNLAEDTRTELKMRNKNIVHMLVKALDRDNFELLILVVSFLKKLSIFMENKNDMVEMDIVEKLVKMIPCEHEDLLNITLRLLLNLSFDTGLRNKMVQVGLLPKLTALLGNENYKQIAMCVLYHISMDDRFKSMFAYTDCIPQLMKMLFECSDERIDLELISFCINLAANKRNVQLICEGNGLKMLMKRALKLKDPLLMKMIRNISQHDGPTKNLFIDYVGDLAAQISSDEEEEFVIECLGTLANLTIPDLDWELVLKEYKLVPFLKDKLKPGAAEDDLVLEVVIMIGTVSMDDSCAALLAKSGIIPALIELLNAQQEDDEFVCQIIYVFYQMVFHQATRDVIIKETQAPAYLIDLMHDKNNEIRKVCDNTLDIIAEYDEEWAKKIQSEKFRWHNSQWLEMVESRQLDESEQYLYGDDRIEPYIHEGDILERPDLFYNSDGLITSEGAISPDFFNDFHLQNGDVVGQHAFPGSLGMDGFGQPLGILGRPATAYGFRPDEPYYYSFGSR

Series [1] deals with the molecule itself. The experiment in a line: single-molecule photobleaching step analysis.
The target of series [2] is B3. The experiment in a line: SEC-MALS.
The series “SEC-MALS” deals with the molecule itself. The series can be described thus: SEC-MALS. For orientation: SEC sorts molecules by how far they enter the pores of the column.
The target in series [3] is full-length APC–green fluorescent protein (GFP) (mouse, UniProt Q61315 1-2845). The experiment in a line: MST.
full-length APC–green fluorescent protein (GFP), sequence (Q61315 whole entry): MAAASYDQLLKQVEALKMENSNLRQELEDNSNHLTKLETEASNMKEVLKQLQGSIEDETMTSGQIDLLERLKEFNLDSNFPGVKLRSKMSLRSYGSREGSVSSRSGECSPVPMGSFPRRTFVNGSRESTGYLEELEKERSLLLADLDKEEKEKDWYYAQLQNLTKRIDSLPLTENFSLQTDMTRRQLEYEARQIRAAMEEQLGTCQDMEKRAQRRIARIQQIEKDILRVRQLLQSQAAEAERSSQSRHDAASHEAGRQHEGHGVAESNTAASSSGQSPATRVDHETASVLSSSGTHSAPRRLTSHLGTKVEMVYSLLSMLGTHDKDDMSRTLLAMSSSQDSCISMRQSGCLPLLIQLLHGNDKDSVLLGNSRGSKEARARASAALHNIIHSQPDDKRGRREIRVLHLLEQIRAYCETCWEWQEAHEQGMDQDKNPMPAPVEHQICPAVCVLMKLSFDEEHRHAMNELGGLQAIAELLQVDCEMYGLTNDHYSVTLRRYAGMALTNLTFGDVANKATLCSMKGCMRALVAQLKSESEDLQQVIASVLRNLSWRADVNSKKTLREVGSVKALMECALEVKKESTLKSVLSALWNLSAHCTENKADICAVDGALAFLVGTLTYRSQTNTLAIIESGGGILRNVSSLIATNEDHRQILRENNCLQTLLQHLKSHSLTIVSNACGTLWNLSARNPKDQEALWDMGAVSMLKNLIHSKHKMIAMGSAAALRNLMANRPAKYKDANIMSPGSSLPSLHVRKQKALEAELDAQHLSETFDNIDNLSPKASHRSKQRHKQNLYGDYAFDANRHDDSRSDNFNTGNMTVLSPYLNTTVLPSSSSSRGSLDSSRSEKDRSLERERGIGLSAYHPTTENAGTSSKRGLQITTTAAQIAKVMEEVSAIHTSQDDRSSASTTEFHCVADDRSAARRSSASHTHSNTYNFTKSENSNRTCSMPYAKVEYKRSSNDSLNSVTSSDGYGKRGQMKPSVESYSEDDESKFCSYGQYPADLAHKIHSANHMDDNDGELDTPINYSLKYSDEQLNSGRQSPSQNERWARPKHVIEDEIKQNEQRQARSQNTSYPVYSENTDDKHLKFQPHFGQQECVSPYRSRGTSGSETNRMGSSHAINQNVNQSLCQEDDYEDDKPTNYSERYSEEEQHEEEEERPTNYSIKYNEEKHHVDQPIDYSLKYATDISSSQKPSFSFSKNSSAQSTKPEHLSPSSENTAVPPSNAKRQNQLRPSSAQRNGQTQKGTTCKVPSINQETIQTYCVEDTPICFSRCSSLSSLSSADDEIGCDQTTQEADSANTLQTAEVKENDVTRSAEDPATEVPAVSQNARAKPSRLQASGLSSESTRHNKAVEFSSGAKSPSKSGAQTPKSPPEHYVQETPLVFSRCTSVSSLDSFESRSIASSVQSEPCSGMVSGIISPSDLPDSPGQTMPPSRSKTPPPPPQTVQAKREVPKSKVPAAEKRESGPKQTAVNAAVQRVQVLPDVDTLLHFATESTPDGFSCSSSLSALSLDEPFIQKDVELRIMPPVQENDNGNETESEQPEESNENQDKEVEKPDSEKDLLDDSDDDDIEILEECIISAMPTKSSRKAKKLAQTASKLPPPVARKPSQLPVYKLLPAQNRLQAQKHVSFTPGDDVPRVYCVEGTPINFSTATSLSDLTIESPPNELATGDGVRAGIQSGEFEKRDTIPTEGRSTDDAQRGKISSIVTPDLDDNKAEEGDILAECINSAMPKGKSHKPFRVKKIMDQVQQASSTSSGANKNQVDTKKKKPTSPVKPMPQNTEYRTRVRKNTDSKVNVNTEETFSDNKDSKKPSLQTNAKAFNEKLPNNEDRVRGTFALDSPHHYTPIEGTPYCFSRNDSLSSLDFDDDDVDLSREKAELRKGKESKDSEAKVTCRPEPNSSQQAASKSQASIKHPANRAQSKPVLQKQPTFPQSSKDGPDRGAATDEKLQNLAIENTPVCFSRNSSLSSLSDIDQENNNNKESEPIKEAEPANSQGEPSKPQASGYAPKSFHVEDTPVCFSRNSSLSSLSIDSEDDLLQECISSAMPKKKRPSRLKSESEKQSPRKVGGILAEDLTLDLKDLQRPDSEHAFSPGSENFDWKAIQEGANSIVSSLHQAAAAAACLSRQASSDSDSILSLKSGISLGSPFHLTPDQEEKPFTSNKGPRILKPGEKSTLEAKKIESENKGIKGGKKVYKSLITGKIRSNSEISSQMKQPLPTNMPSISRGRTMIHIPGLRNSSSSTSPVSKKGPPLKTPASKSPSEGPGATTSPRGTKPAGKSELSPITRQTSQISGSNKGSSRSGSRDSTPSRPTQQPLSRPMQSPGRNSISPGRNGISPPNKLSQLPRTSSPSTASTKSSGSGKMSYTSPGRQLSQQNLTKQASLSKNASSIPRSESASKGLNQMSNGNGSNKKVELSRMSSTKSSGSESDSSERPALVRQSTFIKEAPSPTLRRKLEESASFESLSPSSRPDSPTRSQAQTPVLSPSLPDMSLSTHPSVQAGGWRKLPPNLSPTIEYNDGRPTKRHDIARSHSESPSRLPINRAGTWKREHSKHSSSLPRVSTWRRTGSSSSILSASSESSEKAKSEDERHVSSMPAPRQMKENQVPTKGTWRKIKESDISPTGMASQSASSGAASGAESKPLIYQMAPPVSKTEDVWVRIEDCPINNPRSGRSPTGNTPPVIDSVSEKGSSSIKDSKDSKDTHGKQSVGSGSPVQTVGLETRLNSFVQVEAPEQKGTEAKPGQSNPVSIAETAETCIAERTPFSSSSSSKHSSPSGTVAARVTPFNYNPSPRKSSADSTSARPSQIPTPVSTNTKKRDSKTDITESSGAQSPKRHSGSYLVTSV

Usually stoichiometry N stands for the number of molecules, sites or subunits per partner or assembly. As for B1, the “stoichiometry N” value in series [1] turned out to be 2.

As for B2, the binding result in series [2] is reported as “binds”. For the same molecule, in the series “SEC-MALS”, the “stoichiometry N” value turned out to be 2.

B3: in series [3], the binding result is “binds”.

Values taken from publication PMC7069705 (Science Advances, 2019).
